PMC3057058 (Virology, 2011)

Assays:
[1] = biological target: avian polyomavirus (APV) major capsid protein VP1 (avian polyomavirus (APV), strain BFDV-5) (UniProt P13891); experiment: negative-stain electron microscopy
[2] = biological target: avian polyomavirus (APV) major capsid protein VP1 (avian polyomavirus (APV), strain BFDV-5) (UniProt P13891); experiment: cryo-EM structure
[3] = biological target: the molecule itself; experiment: cryo-EM structure

Row | Molecule | stoichiometry N [1] | stoichiometry N [2] | binding result [3]
1 | avian polyomavirus (APV) major capsid protein VP1 (from UniProt P13891 1-343) (natural protein) | 5 | 5 | –
2 | simian virus 40 (SV40) wild-type VP1, in virus-like particles (natural protein) APTKRKGSCPGAAPKKPKEPVQVPKLVIKGGIEVLGVKTGVDSFTEVECFLNPQMGNPDEHQKGLSKSLAAEKQFTDDSPDKEQLPCYSVARIPLPNINEDLTCGNILMWEAVTVKTEVIGVTAMLNLHSGTQKTHENGAGKPIQGSNFHFFAVGGEPLELQGVLANYRTKYPAQTVTPKNATVDSQQMNTDHKAVLDKDNAYPVECWVPDPSKNENTRYFGTYTGGENVPPVLHITNTATTVLLDEQGVGPLCKADSLYVSAVDICGLFTNTSGTQQWKGLPRYFKITLRKRSVKNPYPISFLLSDLINRRTQRVDGQPMIGMSSQVEEVRVYEDTEELPGDPDMIRYIDEFGQTTTRMQ | – | – | binds
